Results from article PMC7708043 (Nucleic Acids Research, 2020).

T1: mEGFP-ALC1 (UniProt Q86WJ1 1-897)
T1 sequence (looked up): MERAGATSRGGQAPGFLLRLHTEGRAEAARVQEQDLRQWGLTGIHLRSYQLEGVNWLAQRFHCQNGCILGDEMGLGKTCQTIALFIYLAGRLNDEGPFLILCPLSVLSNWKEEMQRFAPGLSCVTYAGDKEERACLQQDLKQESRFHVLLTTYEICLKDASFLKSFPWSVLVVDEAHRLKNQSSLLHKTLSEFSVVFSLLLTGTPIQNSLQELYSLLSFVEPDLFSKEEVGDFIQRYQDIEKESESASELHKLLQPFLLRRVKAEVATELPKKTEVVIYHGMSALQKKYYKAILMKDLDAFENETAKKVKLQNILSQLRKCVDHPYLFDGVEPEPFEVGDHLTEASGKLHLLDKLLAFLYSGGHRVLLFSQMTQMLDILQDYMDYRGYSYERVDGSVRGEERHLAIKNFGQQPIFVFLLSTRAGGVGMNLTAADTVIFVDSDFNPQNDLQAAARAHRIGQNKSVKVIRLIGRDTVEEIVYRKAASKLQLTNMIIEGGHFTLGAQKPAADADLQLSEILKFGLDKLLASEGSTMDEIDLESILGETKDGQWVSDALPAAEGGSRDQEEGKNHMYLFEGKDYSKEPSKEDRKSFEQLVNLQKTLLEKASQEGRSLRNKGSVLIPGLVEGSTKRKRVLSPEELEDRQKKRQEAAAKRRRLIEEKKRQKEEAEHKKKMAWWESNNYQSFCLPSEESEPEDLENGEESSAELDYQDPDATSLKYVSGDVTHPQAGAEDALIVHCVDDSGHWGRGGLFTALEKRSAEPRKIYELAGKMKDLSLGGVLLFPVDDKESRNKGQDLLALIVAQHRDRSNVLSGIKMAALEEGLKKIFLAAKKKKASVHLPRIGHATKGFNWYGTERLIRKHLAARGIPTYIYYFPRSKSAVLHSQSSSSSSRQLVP

B1: mCherry-TRIM33 (natural protein, UniProt Q9UPN9 1-1127, looked up)
chain: MAENKGGGEAESGGGGSGSAPVTAGAAGPAAQEAEPPLTAVLVEEEEEEGGRAGAEGGAAGPDDGGVAAASSGSAQAASSPAASVGTGVAGGAVSTPAPAPASAPAPGPSAGPPPGPPASLLDTCAVCQQSLQSRREAEPKLLPCLHSFCLRCLPEPERQLSVPIPGGSNGDIQQVGVIRCPVCRQECRQIDLVDNYFVKDTSEAPSSSDEKSEQVCTSCEDNASAVGFCVECGEWLCKTCIEAHQRVKFTKDHLIRKKEDVSESVGASGQRPVFCPVHKQEQLKLFCETCDRLTCRDCQLLEHKEHRYQFLEEAFQNQKGAIENLLAKLLEKKNYVHFAATQVQNRIKEVNETNKRVEQEIKVAIFTLINEINKKGKSLLQQLENVTKERQMKLLQQQNDITGLSRQVKHVMNFTNWAIASGSSTALLYSKRLITFQLRHILKARCDPVPAANGAIRFHCDPTFWAKNVVNLGNLVIESKPAPGYTPNVVVGQVPPGTNHISKTPGQINLAQLRLQHMQQQVYAQKHQQLQQMRMQQPPAPVPTTTTTTQQHPRQAAPQMLQQQPPRLISVQTMQRGNMNCGAFQAHQMRLAQNAARIPGIPRHSGPQYSMMQPHLQRQHSNPGHAGPFPVVSVHNTTINPTSPTTATMANANRGPTSPSVTAIELIPSVTNPENLPSLPDIPPIQLEDAGSSSLDNLLSRYISGSHLPPQPTSTMNPSPGPSALSPGSSGLSNSHTPVRPPSTSSTGSRGSCGSSGRTAEKTSLSFKSDQVKVKQEPGTEDEICSFSGGVKQEKTEDGRRSACMLSSPESSLTPPLSTNLHLESELDALASLENHVKIEPADMNESCKQSGLSSLVNGKSPIRSLMHRSARIGGDGNNKDDDPNEDWCAVCQNGGDLLCCEKCPKVFHLTCHVPTLLSFPSGDWICTFCRDIGKPEVEYDCDNLQHSKKGKTAQGLSPVDQRKCERLLLYLYCHELSIEFQEPVPASIPNYYKIIKKPMDLSTVKKKLQKKHSQHYQIPDDFVADVRLIFKNCERFNEMMKVVQVYADTQEINLKADSEVAQAGKAVALYFEDKLTEIYSDRTFAPLPEFEQEEDDGEVTEDSDEDFIQPRRKRLKSDERPVHIK
B2: mCherry-ALC1 (natural protein, UniProt Q86WJ1 1-897, looked up)
chain: T1 sequence (looked up)

What was measured:
Experiment in all cases: FRET or BRET
[1] = biological target: T1, mEGFP-ALC1
[2] = biological target: T2, mEGFP-PARP1 (UniProt P09874 1-1014)
[3] = biological target: T2, mEGFP-PARP1; remark: listed apart in the source

T2 sequence (P09874 whole entry): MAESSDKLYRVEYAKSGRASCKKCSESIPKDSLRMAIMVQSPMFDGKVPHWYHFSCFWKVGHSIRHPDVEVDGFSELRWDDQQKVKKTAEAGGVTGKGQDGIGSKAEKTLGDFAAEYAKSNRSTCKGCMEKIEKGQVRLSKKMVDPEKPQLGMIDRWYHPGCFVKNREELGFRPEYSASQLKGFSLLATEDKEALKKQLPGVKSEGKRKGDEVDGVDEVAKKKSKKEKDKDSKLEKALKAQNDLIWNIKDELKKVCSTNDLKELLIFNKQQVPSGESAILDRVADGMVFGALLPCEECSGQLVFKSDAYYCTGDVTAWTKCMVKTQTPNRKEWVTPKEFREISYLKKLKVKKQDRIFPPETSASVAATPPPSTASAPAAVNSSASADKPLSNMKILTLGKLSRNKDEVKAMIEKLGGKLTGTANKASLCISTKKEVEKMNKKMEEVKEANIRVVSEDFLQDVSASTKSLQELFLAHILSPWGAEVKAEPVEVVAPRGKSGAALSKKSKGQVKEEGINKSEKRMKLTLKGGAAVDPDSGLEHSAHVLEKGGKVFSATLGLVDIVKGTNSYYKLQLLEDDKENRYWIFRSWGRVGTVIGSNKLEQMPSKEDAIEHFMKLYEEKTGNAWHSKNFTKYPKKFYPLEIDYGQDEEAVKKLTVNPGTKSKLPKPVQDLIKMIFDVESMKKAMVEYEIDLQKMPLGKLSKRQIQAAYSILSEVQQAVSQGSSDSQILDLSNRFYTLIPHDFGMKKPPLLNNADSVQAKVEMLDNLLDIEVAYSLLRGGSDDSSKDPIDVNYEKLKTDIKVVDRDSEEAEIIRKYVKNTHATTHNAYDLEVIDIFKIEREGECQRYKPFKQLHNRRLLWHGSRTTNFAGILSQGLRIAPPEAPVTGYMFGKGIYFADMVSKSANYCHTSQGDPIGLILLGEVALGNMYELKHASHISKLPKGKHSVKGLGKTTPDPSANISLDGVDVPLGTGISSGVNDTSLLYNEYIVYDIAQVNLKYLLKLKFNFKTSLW

Row | Binder | median FRET efficiency (at the damage site) [1] | median FRET efficiency (1 min after damage) [2] | median FRET efficiency (5 min after damage) [2] | median FRET efficiency (at the damage site) [3]
1 | B1 | 2.2% | – | – | –
2 | B2 | – | 5.8% | 3.8% | 5.5%
